# “And” between values parts separate entries of the source, which are not always exact repeats. Equal entries are not always repeated.
# Legend:
# [1] = Serum stability in PBS-buffered human blood serum (PAGE of 32P-labeled aptamer); format: in vitro ADME; settings: 10% PBS-buffered HBS, 37° C., 0 to 72 h
# Method: Serum stabilities of trCLN3, its two point mutant non-binding variant trCLN3.mut and their corresponding lipid-functionalized derivatives trCLN3-L4 and trCLN3.mut-L4 were investigated in fetal calf serum (FCS) and human blood serum. For this purpose, the aptamer motifs were labeled at their 5′-end with ^32P to form radiolabeled oligonucleotides. The degradation tests of all the aptamer motifs were performed for 60-72 h at 37°° C. 6 pmol (12 μl of 0.5 μM) of the radio-labeled aptamer (5′-end-labeled with γ-^32P) was incubated in a volume of 300 μl freshly thawed PBS-buffered FCS or human blood serum (270 μl serum+30 μl 10×PBS). For each measurement, 10 μl of the samples were removed, mixed with 90 μl of gel loading buffer (80% formamide+5 mM EDTA+0.01% SDS) and subsequently stored at −20° C. Aliquots of samples were taken after indicated time intervals of 0, 0.3, 1.5, 3, 6, 24, 48, 60 and 72h respectively. The serum stability of the aptamer in FCS or in HBS at different time intervals were analyzed on a denaturing PAGE by loading 10 μl of each sample onto a 10% TAE-Urea gel and running the gels for 90 minutes at 350 V. Gels were wrapped in clingfilm and exposed to a phosphorimager screen in a closed cassette over a period of 12 h and finally the residual intact aptamer bands were analyzed by scanning the screen in a phosphorimage-scanner (FujiFilm FLA 3000). Intensities of the residual intact aptamer bands were calculated applying AIDA image analyzer software program. Serums half-lives of the selected aptamers were determined by using a half-life curve-fitting data analysis program (GraphPad Prism).
# [2] = Critical micelle concentration via FRET (6-Fam/Atto647N-labeled motif 3); format: physicochemical; settings: room temperature
# Method: The critical micelle concentration (CMC) value of the trCLN3-L4 aggregates was determined by intermolecular Förster resonance energy transfer (FRET) experiments using a FRET pair of 6-Fam and Atto647N both attached to the 5′-end of the trCLN3-L4 motif 3. The FRET labels were attached at the 5′-end in immediate proximity to the lipid-modifications to ensure that intermolecular FRET effects report the formation of micellar nanoconstructs at a concentration above the critical micelle concentration.
# In the FRET experiment, a series of nanoconstructs was self-assembled by mixing 6-Fam- and Atto647N-labeled motif 3 in 1:1 ratios in a concentration range between 0.035-15 μM (Table 2). […] The mixtures were transferred into a 384-well plate and the FRET effect was monitored at room temperature by using an excitation wave length of λex=480 nm and an emission wavelength of λem=669 nm using an EnSpire® Multimode Plate Reader (PerkinElmer).
# The intensity signals were collected for both FRET channels at λem=669 nm for the acceptor channel and that of donor channel at λem=520 nm. […] The CMC value was determined from the intersection of the lower horizontal asymptote of the sigmoidal curve with the tangent at the inflection point corresponding to the minimum trCLN3-L4 concentration required for formation of stable micelles in aqueous medium. […]
# [3] = Atomic force microscopy (AFM) size of nanoconstructs; format: physicochemical; settings: Gaussian fit of at least 50 nanoconstructs
# Method: All AFM images of the trCLN3-L4 and HyApNc aggregates were taken by using a Nanowizard III AFM (JPK instruments, Berlin) in tapping mode. ACTA probes with silicon tips were used for imaging in dry mode in air. A volume of 3 μL (5 mM) of a solution of magnesium acetate (MgAc2) in water was deposited on a freshly cleaved mica surface layer and allowed to incubate for 3 minutes and afterwards the surface was rinsed with 2×10 μL of milli-Q water and dried under air pressure. For imaging a volume of 3 μL of the trCLN3-L4/HyApNc solutions in ultra pure water were spotted on the pre-treated mica surface and allowed to incubate for 1 min. After 1 min incubation on the mica surface, the excess sample solution was gently shaken off and the mica surface was blown dry with air pressure and mounted to the AFM microscope for immediate imaging. […]
# In a first step. we synthesized the lipid-modified phosphoramidite 1 with a C12-lipid chain incorporated at the 5-position of the uridine base (FIGS. 2A-B). […] We evaluated the CMC of the trCLN3-L4nanoconstructs using Forster resonance energy transfer (FRET; Example 3; FIGS. 6A-C; Table 2) and fluorescence studies with pyrene-loaded trCLN3-L4 nanoconstructs (FIGS. 7A-B; Table 3). […] The trCLN3-L4 3 nanoconstructs have an average diameter of 21.2±1.5 nm (FIG. 8C, upper panel), consistent with the size of 25 nm measured by TEM.
# [4] = TEM size of trCLN3-L4 nanoconstructs; format: physicochemical; settings: negative stain electron microscopy
# Method: The size and structure of the trCLN3-L4 nanoconstructs were analyzed by negative stain electron microscopy. Samples were prepared using negative staining. In brief, carbon coated grids (Quantifoil Micro Tools GmbH, Jena, Germany, 200 mesh) were glow discharged to render the surface hydrophilic prior to applying samples. 10 μL of an aqueous solution of trCLN3-L4 were applied to the grid. Afterwards excess solution was carefully blotted off using filter paper followed by 3 times washing with ddH2O. In the final step, grids were stained with negative staining reagent by placing them (plastic side down) on a 10 μL drop of freshly prepared 2% […] uranyl formiate aqueous staining solution. TEM micrographs were recorded using a JEOL JEM 2200 FS electron microscope (JEOL, Japan) operated at 200 kV. The size of the micelles measured on the TEM images could typically be observed in a range between 20 and 25 nm.
substance,measurement,setting,value
"trCLN3-L4: trCLN3 aptamer with four C12-lipid-modified dU residues at the 5′-end; self-assembles into micellar nanoconstructs (TGGATGGTAGCTCGGTCGGGGTGGGTGGGTTGGCAAGTCT; four 5' C12-lipid-modified dU residues, chemistry not fully specified)",serum half-life (t1/2),[1],no significant degradation even up to 72 h
same,critical micelle concentration (CMC),"[2]; FRET, aqueous medium",300 nM and ~0.005 mg/ml
same,CMC values,[2]; both methods (FRET and pyrene fluorescence),300 to 350 nM
same,average diameter,[3],21.2±1.5 nm
same,size measured by TEM,[4],25 nm

# Source: US20240425867A1, “NUCLEIC ACID-BASED ASSEMBLY AND USES THEREOF” (Rheinische Friedrich-Wilhelms-Universität Bonn, priority 2016, published 2024)
